Measured values published in the supplement of paper PMC12764529.
± gives the half width of the 95% confidence interval.

Tests used:
[1] = folding stability dG unfold from trypsin proteolysis; higher = more stable
In short: (§1)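 K50 was inferred by Bayesian fitting of sequencing counts obtained after protease digestion of designed mini-proteins. Unfolding free energy was derived by comparison with a sequence-predicted unfolded-state K50 and a shared folded-state K50, for each protease or both combined. The mini-proteins were under 80 residues, had no cysteine, were carried in a PA-tagged cDNA display construct, and were kept only if AlphaFold2 dimer inter-PAE exceeded 15.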

[2] = folding stability dG unfold (combined trypsin and chymotrypsin); higher = more stable
In short: as §1

[3] = folding stability dG unfold from chymotrypsin proteolysis; higher = more stable
In short: as §1

Sequence | folding stability dG unfold [1] [kcal/mol] | folding stability dG unfold [2] [kcal/mol] | folding stability dG unfold [3] [kcal/mol]
SVVRLPNGEWFEVDGRLVRVTVDEETGEIVDVEVYEVTVEEPPPPPPPLEVTVTVEPDAPPGATITITVTSA [r9_90_TrROS_Hall] | 1.8 ± 0.13 | 1.5 ± 0.27 | 1.48 ± 0.12
SAGGEERERIRRLVRELRRRGYKRITADELARLLGREITEEELEALREAGLIELEEEETVEVVLPEEESAGG [r13_188_TrROS_Hall] | 4.02 ± 0.16 | 4.15 ± 0.14 | 4.26 ± 0.085
SLEVARELGLPVERAIPTSVDPFNGRTHLVVLVSLPSRFVRIEVDVRYEPDPDGRLIPRVEVLRIEVFPESA [r9_613_TrMRF] | 2.59 ± 0.048 | 3.21 ± 0.05 | 3.67 ± 0.04
SAGGSAGGSAGGMMKTTITITLPPNSSKEEAEKIKEEGLPAEEIVVEKNPDGTRVVTILESAGGSAGGSAGG [r11_97_JUSTAS] | -0.915 ± 0.31 | 0.237 ± 0.15 | 0.657 ± 0.051
SAGGSAGGSAGGKPEIKLVEVENEDGSKLIKIEVNGKTIIIENVKTEEELRELLKKLGIESAGGSAGGSAGG [r7_91_TrROS_Hall] | 2.08 ± 0.14 | 2.64 ± 0.25 | 2.66 ± 0.17
SAGGMLVRVRFRIVEPGTGEPFEFEALLFFGEDGSFELVFPDGTRLLFPPEARIEVLDAELLDPDEASAGGS [r16_223_TrMRF] | 3.96 ± 0.19 | 4.61 ± 0.2 | 4.9 ± 0.11
SAKIKVEIVEIDEKTGTIKIKAEIELPDGTKIELEATIKIEPVEVEKKEVTDKNGKKITVTKIKIKLPEKSA [r9_610_TrROS_Hall] | 2.05 ± 0.5 | 2.59 ± 0.71 | 2.52 ± 0.24
SAETTTETKVEEITLEDKKATINITTYSDGSTEATITIYGNDPKVKEKVKEYIKKKDPNIKITKIETKESAG [r14_611_JUSTAS] | 1.85 ± 0.083 | 2.92 ± 0.093 | 3.25 ± 0.043
SAGGSAGGSAGGSMTLVIKNGIGYTVIKIKVEYDEETGEFSFELEIETKPVPPNYPVPASAGGSAGGSAGGS [r4_215_TrMRF] | 3.02 ± 0.33 | 3.99 ± 0.59 | 4.39 ± 0.33
SAGDPRLRVLVVDLEVEGLEELREFVEEHPDVEVLPRPDGRVLLRRVLLVEVEEPEGEEDPDGPTLHPDSAG [r5_129_TrMRF] | 0.966 ± 0.11 | 1.26 ± 0.13 | 1.44 ± 0.18
SAGGSAGGSAGSISRTATPDGYLYTFTDSSGKTHTIPSPVPGMPLSEVAERARAAGFSTVESSAGGSAGGSA [r18_83_JUSTAS] | -0.188 ± 0.12 | 0.618 ± 0.08 | 0.968 ± 0.065
SAGGGLIRDAIENNPELRELLKEGYVLYVTYPDGKSGVIEINNASASEIDDAIRAHFPGEVELEFGSSAGGS [r16_655_TrMRF] | 1.04 ± 0.028 | 0.752 ± 0.046 | 0.389 ± 0.048
SAGGIYRVEIEIPGGNTIEFMIPGATEEMAKEIANELAQHFNPGDIKIEVYPIPPVKVDPEDGKWKWSAGGS [r8_167_TrROS] | 0.579 ± 0.039 | 1.13 ± 0.095 | 1.41 ± 0.1
SAGGSAGGSAGGKEPKKVKVYLFNENGELIGVFELEVETLEELEEAVRKLGFLAVVEPESAGGSAGGSAGGS [r10_958_TrMRF] | 4.14 ± 0.096 | 4.4 ± 0.077 | 4.43 ± 0.069
KMKTITITVKVPKGMKVVITLANGKKIEIEVESVEDALKKIKKLLPEGAVLRVEVVKDGKVIEEKEIVIKPS [r1_276_TrROS_Hall] | 2.18 ± 0.071 | 2.66 ± 0.15 | 2.96 ± 0.041
SAGGSAGGSKAEIVSVEKLPEEGELYLVKIRVDGKTYTIAVPVGSTVTIDVPPGAEIEIRKLPSAGGSAGGS [r12_373_TrROS_Hall] | 1.62 ± 0.038 | 2.32 ± 0.046 | 2.619 ± 0.019
SAGGDTFLMLHPHPVKDNGKDKPYYHIMVMKITEVEPDNGKPRLKMEMKMIHIPADDPDALKEAGIPISAGG [r13_670_TrROS] | 1.81 ± 0.1 | 1.77 ± 0.16 | 1.52 ± 0.21
SASMIIDPVSSEEEIEKLVKEAIEAGIGGEGLIVLRSDGKVYRITIEPGTGKVKKEEVMSPEELAAKLGSAG [r14_913_JUSTAS] | 1.75 ± 0.053 | 2.12 ± 0.16 | 2.11 ± 0.051
SAGGSATVEEIAKYFAEQHPGMEPKSVKLDYERNPEEGVYRIKVNITMRFDDNKKHKMPVEIQFPVSAGGSA [r15_266_TrROS] | 0.406 ± 0.059 | 0.433 ± 0.085 | 0.358 ± 0.14
SAGGSAGGSAKPEKPEKVELKPKVKFVKVKVRLRFSFTLENGEKVEVELEATFLFVDGKLVSAGGSAGGSAG [r3_380_TrROS_Hall] | 3.97 ± 0.22 | 5.11 ± 0.2 | 5.31 ± 0.13
SAMKIEPVPDPEHGRTYYTIKFKGAEVQIWENPGQYYISIRPPGNNKQIVIPAPPNDIDDILKELGIKPSAG [r14_4_TrROS] | 1.06 ± 0.032 | 1.4 ± 0.17 | 1.71 ± 0.16

Sequence | folding stability dG unfold [1] [kcal/mol] | folding stability dG unfold [2] [kcal/mol] | folding stability dG unfold [3] [kcal/mol]
SAMTKLVEFDSEEEYEAAVKAAAAAGESVLARLKDPSGTYTVVEVEVDPETGTVTVKKTEKVPVDGSLGSAG [r14_455_JUSTAS] | 0.622 ± 0.018 | 1.14 ± 0.042 | 1.37 ± 0.027
SAGGSAGGSAGGSMVKILIEKENELYEIYVPKDEIPLDELVKKAKELFPDIVKIEVFDDSAGGSAGGSAGGS [r4_235_TrMRF] | 0.802 ± 0.039 | 0.966 ± 0.096 | 1.1 ± 0.03
SAGGSAGGSAMTPVTTTQTISFPGSEEEARAEAERIREELEAKGLTVSFEFLPGGTLKITVASAGGSAGGSA [r18_262_JUSTAS] | 3.18 ± 0.064 | 2.74 ± 0.038 | 2.398 ± 0.021
SSVEIKLYYDPVTNKYYVEITITAPPGDPAAVEARAAAVREEVKEALKAKGLVPDEIKVTVNVVSPAVPGSA [r9_117_JUSTAS] | 4.09 ± 0.15 | 4.37 ± 0.21 | 4.27 ± 0.21
SAGGSAGGSALELIKEIAEEHNIPVDIEPTGNKIRVEIEMPNPDGQPVKHTIEIPIPPDENQSAGGSAGGSA [r18_27_TrROS] | 0.389 ± 0.11 | 0.975 ± 0.2 | 1.08 ± 0.078
SAGGMLIVRITVDLTFPVIHPDNRPSLVSVPLPITLPFSTPEEARAFAEALSKLFDAPVSLEVLPPDGSAGG [r13_320_TrMRF] | 3.62 ± 0.13 | 4.16 ± 0.12 | 4.4 ± 0.094
SAGSVTSVEVKEKGEVTVTTETLNIDGKPYTVVSTTTPLLDPEGNVTYTTTTTVYDPNGNKISTTPTSLSAG [r14_465_JUSTAS] | 1.33 ± 0.033 | 1.84 ± 0.051 | 2.14 ± 0.032
SAGGSAGGSAGIRIKAFPGWKIVDIEPNPPGTIIIRYPNWVFQIRIRPNGEIEIRIVPLDSAGGSAGGSAGG [r11_612_TrROS] | 3.09 ± 0.093 | 3.49 ± 0.083 | 3.64 ± 0.055
SAGGAIELPDLGEEEAIETLKKLAEEGIKNPVGVIRTPTKPLVITYDPETNTVTITLPDGTILTLVVSAGGS [r16_481_JUSTAS] | 0.755 ± 0.091 | 1.52 ± 0.11 | 1.83 ± 0.028
SAGGSKKPKKIIVIEIPENMTEEEIKKLAEELAKKLNIKKIVKIEKKKDGSVRIVLETKDGKKIEFSAGGSA [r2_168_TrROS_Hall] | 2.3 ± 0.089 | 2.63 ± 0.16 | 2.84 ± 0.035
SAMRIRIEVETRTGPDGRKYVVVRIRDEKTGEELELVFESREEAEEAAKALAEELKKAGYEIEVEIRPPSAG [r14_263_TrROS_Hall] | 5.23 ± 0.47 | 5.21 ± 0.19 | 5.21 ± 0.2
SAGGSAGMTVTKTFTLPGYKVELTTHPGLPPDAPVTIEVTLTPPDGSVVKSTRTVLARPDDPSVLLSAGGSA [r15_10_JUSTAS] | 2.15 ± 0.13 | 2.46 ± 0.16 | 2.73 ± 0.12
SAGGSPNIQVNVERDPKDGYIKFSITVPPGAPNMKIKIAIFENDKIVEKEEITMPPGKTTEYTFKIKSAGGS [r16_412_TrROS] | 3.29 ± 0.16 | 3.6 ± 0.38 | 4.13 ± 0.065
SAGGSAGGSAGGSSTILIPSSTSEEYAESLAKELKKKGNVKTSFDPSTGVLVLTLPGGSSSAGGSAGGSAGG [r7_219_JUSTAS] | -0.962 ± 0.59 | -0.17 ± 0.21 | 0.0516 ± 0.2
SAGGSAGGSAMKIEIEKTEDTIKVRIKRKDGKEIEIEIPKENMSLEEIKKLAEELGIEKVEPSAGGSAGGSA [r18_83_TrROS_Hall] | 1.49 ± 0.17 | 1.6 ± 0.17 | 1.63 ± 0.073
SAGGSMEVVVTFPDGSKEVIPEEPLKKLAEELGIPWDEEDPEAQWEAIARALAEKTGKPVEKVEIASAGGSA [r2_83_TrMRF] | 1.97 ± 0.072 | 2.09 ± 0.093 | 2.24 ± 0.17
SAGGSAGGSAGGSLIVPAKDAVRFAEEWRRRFGGRFEIRGIPGIPFVPILVRPPDPAEFSAGGSAGGSAGGS [r4_419_TrMRF] | -0.418 ± 0.38 | 0.491 ± 0.097 | 0.703 ± 0.096
WMWVIKVRNPKNGKKRTIMIPDDPERAKNQIKNLKKQDPNMTVEIIGIKEPEVRKAAKEAGLDDIEVEPMPS [r1_114_TrROS] | 0.758 ± 0.091 | 0.726 ± 0.31 | 0.666 ± 0.34
SAGGGVEITREPDPAGGRRVRFTDPSGRTFEVEITPDSLRITRPDGTTRSAAVPPDADLRLPYSELASAGGS [r16_203_JUSTAS] | -0.625 ± 0.12 | 0.134 ± 0.057 | 0.418 ± 0.041
SAGGMIPPEKLEEIAKKIAEETEPLGKVVKHLFVDPLEDEVVIIELTVYPGPKKIEIKEIKVYPPEELSAGG [r13_37_TrMRF] | 0.0241 ± 0.084 | 0.223 ± 0.16 | 0.251 ± 0.034
SAGGSAKEEIRLVIEVDGKLIEITIPKDKITKVEFDKETGKITITVKVNGKELKLVFTDGKAKLVESAGGSA [r15_598_TrROS_Hall] | 2.27 ± 0.14 | 2.47 ± 0.17 | 2.6 ± 0.12
